The values that follow come from the RNAGym collection of RNA variant scans (doi:10.7554/elife.80360).

To fix the notation:
B1: CPEB3 Ribozyme (parent)
chain: GGGGGCCACAGCAGAAGCGUUCACGUCGCGGCCCCUGUCAGAUUCUGGUGAAUCUGCGAAUUCUGCUGU

Variants of B1 are the subject of this series. In words: self-cleavage, relative activity (ratio to wild type); higher = more cleavage; co-transcriptional.
GGGGGCCACAGCAGAAGCGUUCACGUCGCGGCCCCUGUCAGAUUCUGGUGAAUCUGCGAAUUCCGCUGC [U64C U69C]: the self-cleavage was determined as 1.07.

Turning to GGGGGCCACAGCAGAAGCGUUCACGUCGCGGCCCCUGUCAGAUUCUGGUGAAUCUGCGAAUUCGGCUAU [U64G G68A], the self-cleavage was found to be 1.

As to GGGGGCCACAGCAGAAGCGUUCACGUCGCGGCCCCUGUCAGAUUCUGGUGAAUCUGCGAAUUCGGCUCU [U64G G68C], the self-cleavage was 0.799.

For GGGGGCCACAGCAGAAGCGUUCACGUCGCGGCCCCUGUCAGAUUCUGGUGAAUCUGCGAAUUCGGCUUU [U64G G68U], the self-cleavage was determined as 0.923.

Take GGGGGCCACAGCAGAAGCGUUCACGUCGCGGCCCCUGUCAGAUUCUGGUGAAUCUGCGAAUUCUACGGU [G65A U67G]: the self-cleavage was 0.887.

For GGGGGCCACAGCAGAAGCGUUCACGUCGCGGCCCCUGUCAGAUUCUGGUGAAUCUGCGAAUUCUACCGU [G65A U67C], the self-cleavage was determined as 0.844.

With GGGGGCCACAGCAGAAGCGUUCACGUCGCGGCCCCUGUCAGAUUCUGGUGAAUCUGCGAAUUCUACAGU [G65A U67A], the self-cleavage came to 0.793.

As for GGGGGCCACAGCAGAAGCGUUCACGUCGCGGCCCCUGUCAGAUUCUGGUGAAUCUGCGAAUUCGGCUGA [U64G U69A], the self-cleavage was found to be 0.97.

Consider GGGGGCCACAGCAGAAGCGUUCACGUCGCGGCCCCUGUCAGAUUCUGGUGAAUCUGCGAAUUCGGCUGG [U64G U69G], for which the self-cleavage was determined as 1.02.

Consider GGGGGCCACAGCAGAAGCGUUCACGUCGCGGCCCCUGUCAGAUUCUGGUGAAUCUGCGAAUUCGGCUGC [U64G U69C], for which the self-cleavage was 1.05.

As for GGGGGCCACAGCAGAAGCGUUCACGUCGCGGCCCCUGUCAGAUUCUGGUGAAUCUGCGAAUUCCGCAGU [U64C U67A], the self-cleavage worked out at 0.864.

For the variant GGGGGCCACAGCAGAAGCGUUCACGUCGCGGCCCCUGUCAGAUUCUGGUGAAUCUGCGAAUUCCGCCGU [U64C U67C], the self-cleavage turned out to be 0.764.

With GGGGGCCACAGCAGAAGCGUUCACGUCGCGGCCCCUGUCAGAUUCUGGUGAAUCUGCGAAUUCUUGUGU [G65U C66G], the self-cleavage is 0.814.

For GGGGGCCACAGCAGAAGCGUUCACGUCGCGGCCCCUGUCAGAUUCUGGUGAAUCUGCGAAUUCUUUUGU [G65U C66U], the self-cleavage stood at 0.55.

In the case of GGGGGCCACAGCAGAAGCGUUCACGUCGCGGCCCCUGUCAGAUUCUGGUGAAUCUGCGAAUUCUUAUGU [G65U C66A], the self-cleavage came out at 0.669.

With GGGGGCCACAGCAGAAGCGUUCACGUCGCGGCCCCUGUCAGAUUCUGGUGAAUCUGCGAAUUCUCCUGU [G65C], the self-cleavage was determined as 0.758.

Regarding GGGGGCCACAGCAGAAGCGUUCACGUCGCGGCCCCUGUCAGAUUCUGGUGAAUCUGCGAAUUCUUCUGU [G65U], the self-cleavage was found to be 0.877.

Regarding GGGGGCCACAGCAGAAGCGUUCACGUCGCGGCCCCUGUCAGAUUCUGGUGAAUCUGCGAAUUCUACUGU [G65A], the self-cleavage was determined as 0.954.

On to GGGGGCCACAGCAGAAGCGUUCACGUCGCGGCCCCUGUCAGAUUCUGGUGAAUCUGCGAAUUCUAUUGU [G65A C66U], for which the self-cleavage came to 0.77.

For GGGGGCCACAGCAGAAGCGUUCACGUCGCGGCCCCUGUCAGAUUCUGGUGAAUCUGCGAAUUCUAGUGU [G65A C66G], the self-cleavage is 0.797.

With GGGGGCCACAGCAGAAGCGUUCACGUCGCGGCCCCUGUCAGAUUCUGGUGAAUCUGCGAAUUCUCCUGA [G65C U69A], the self-cleavage worked out at 0.828.

With GGGGGCCACAGCAGAAGCGUUCACGUCGCGGCCCCUGUCAGAUUCUGGUGAAUCUGCGAAUUCUACUGG [G65A U69G], the self-cleavage came to 0.947.

In the case of GGGGGCCACAGCAGAAGCGUUCACGUCGCGGCCCCUGUCAGAUUCUGGUGAAUCUGCGAAUUCUUCUGA [G65U U69A], the self-cleavage came to 0.835.

On to GGGGGCCACAGCAGAAGCGUUCACGUCGCGGCCCCUGUCAGAUUCUGGUGAAUCUGCGAAUUCGCCUGU [U64G G65C], for which the self-cleavage was determined as 0.679.

On to GGGGGCCACAGCAGAAGCGUUCACGUCGCGGCCCCUGUCAGAUUCUGGUGAAUCUGCGAAUUCGACUGU [U64G G65A], for which the self-cleavage came out at 0.578.

GGGGGCCACAGCAGAAGCGUUCACGUCGCGGCCCCUGUCAGAUUCUGGUGAAUCUGCGAAUUCUACUAU [G65A G68A]: the self-cleavage was determined as 0.941.

On to GGGGGCCACAGCAGAAGCGUUCACGUCGCGGCCCCUGUCAGAUUCUGGUGAAUCUGCGAAUUCUACUCU [G65A G68C], for which the self-cleavage was 0.945.

GGGGGCCACAGCAGAAGCGUUCACGUCGCGGCCCCUGUCAGAUUCUGGUGAAUCUGCGAAUUCUACUUU [G65A G68U]: the self-cleavage came to 0.813.

With GGGGGCCACAGCAGAAGCGUUCACGUCGCGGCCCCUGUCAGAUUCUGGUGAAUCUGCGAAUUCUCUUGU [G65C C66U], the self-cleavage was determined as 0.816.

Regarding GGGGGCCACAGCAGAAGCGUUCACGUCGCGGCCCCUGUCAGAUUCUGGUGAAUCUGCGAAUUCUCGUGU [G65C C66G], the self-cleavage was 0.65.

For GGGGGCCACAGCAGAAGCGUUCACGUCGCGGCCCCUGUCAGAUUCUGGUGAAUCUGCGAAUUCUCCUAU [G65C G68A], the self-cleavage came to 0.678.

Regarding GGGGGCCACAGCAGAAGCGUUCACGUCGCGGCCCCUGUCAGAUUCUGGUGAAUCUGCGAAUUCUCCCGU [G65C U67C], the self-cleavage turned out to be 0.905.

On to GGGGGCCACAGCAGAAGCGUUCACGUCGCGGCCCCUGUCAGAUUCUGGUGAAUCUGCGAAUUCUCCGGU [G65C U67G], for which the self-cleavage came to 0.905.

For the variant GGGGGCCACAGCAGAAGCGUUCACGUCGCGGCCCCUGUCAGAUUCUGGUGAAUCUGCGAAUUCGGGUGU [U64G C66G], the self-cleavage was determined as 0.442.

As to GGGGGCCACAGCAGAAGCGUUCACGUCGCGGCCCCUGUCAGAUUCUGGUGAAUCUGCGAAUUCGGUUGU [U64G C66U], the self-cleavage was found to be 0.558.

In the case of GGGGGCCACAGCAGAAGCGUUCACGUCGCGGCCCCUGUCAGAUUCUGGUGAAUCUGCGAAUUCUUCUCU [G65U G68C], the self-cleavage is 0.852.

As to GGGGGCCACAGCAGAAGCGUUCACGUCGCGGCCCCUGUCAGAUUCUGGUGAAUCUGCGAAUUCUUCGGU [G65U U67G], the self-cleavage came out at 0.92.

As to GGGGGCCACAGCAGAAGCGUUCACGUCGCGGCCCCUGUCAGAUUCUGGUGAAUCUGCGAAUUCUUCCGU [G65U U67C], the self-cleavage is 0.78.

For the variant GGGGGCCACAGCAGAAGCGUUCACGUCGCGGCCCCUGUCAGAUUCUGGUGAAUCUGCGAAUUCUUCAGU [G65U U67A], the self-cleavage worked out at 0.848.
